According to US20260258084A1, “New Peptides as Selective IL-23 Receptor Antagonists” (Sanofi, priority 2022, published 2026):
Starred links: 1 amine or outer side, 2 acyl side, 3 side chain; linkers in the order of their positions; H or OH if unused. Positions of bridges follow the written chain, without caps; N, C: chain ends. Non-standard residues stand in square brackets, D forms with d. No end group written: not given here. *: point of attachment. Yde = (2S)-2-amino-3-[4-[2-(dimethylamino)ethoxy]phenyl]propanoic acid, CN(C)CCOc1ccc(C[C@H](N[*:1])C(=O)[*:2])cc1; Trp(7-Me) = Cc1cccc2c(C[C@H](N)C(=O)O)c[nH]c12; 2Nal = N[C@@H](Cc1ccc2ccccc2c1)C(=O)O; εLys = N[C@@H](CCCCN[*:1])C(=O)[*:2]; Palmitoyl = CCCCCCCCCCCCCCCC(=O)*; 3Pal = N[C@@H](Cc1cccnc1)C(=O)O; Dad = desamino-aspartamic acid; Lys(Me) = CNCCCC[C@H](N)C(=O)O; αMeL = CC(C)C[C@](C)(N)C(=O)O; αMeK = C[C@](N)(CCCCN)C(=O)O; NMeC = CN[C@@H](CS)C(=O)O; Thp = NC1(C(=O)O)CCOCC1; Aib = CC(C)(N)C(=O)O; Ava = NCCCCC(=O)O; Sar = CNCC(=O)O

T1: IL-23 receptor on the surface of HEK-Blue IL-23 cells (UniProt Q5VWK5 24-629, limits assumed)
T1 sequence (looked up): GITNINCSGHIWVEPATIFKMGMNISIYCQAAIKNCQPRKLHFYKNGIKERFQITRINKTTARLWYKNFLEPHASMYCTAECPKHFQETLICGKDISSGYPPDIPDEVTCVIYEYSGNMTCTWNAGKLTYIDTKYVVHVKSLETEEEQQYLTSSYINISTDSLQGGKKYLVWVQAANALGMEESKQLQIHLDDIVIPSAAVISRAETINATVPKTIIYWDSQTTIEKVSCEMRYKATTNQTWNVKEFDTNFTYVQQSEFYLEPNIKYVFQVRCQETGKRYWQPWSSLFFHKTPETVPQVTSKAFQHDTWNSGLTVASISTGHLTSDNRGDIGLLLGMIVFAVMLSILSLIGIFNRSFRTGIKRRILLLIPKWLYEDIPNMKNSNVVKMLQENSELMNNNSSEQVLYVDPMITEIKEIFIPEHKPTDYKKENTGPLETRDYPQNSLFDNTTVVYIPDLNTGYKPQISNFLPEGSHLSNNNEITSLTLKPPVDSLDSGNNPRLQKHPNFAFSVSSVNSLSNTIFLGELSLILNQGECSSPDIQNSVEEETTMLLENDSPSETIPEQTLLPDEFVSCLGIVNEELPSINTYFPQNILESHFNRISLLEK

B1: Compound of SEQ ID NO: 104 (peptide)
peptide: [Dad]CK[Trp(7-Me)]K(Ac)C[Yde][2Nal][Aib]KN[3Pal][Sar]-NH2
modifications: lactam (positions not given here); disulfide 2-6; not fully specified (residue 3, bridges); printed as Dad(§1)-C(§3)(@2)-K[aAc](@3)-Wim-K[Ac]-C(@2)-Yde-Nal-Aib-K(§1)-N-Pal-Sar-NH2; also: K[aAc]: Cys2 bonded to epsilon-NH2 of acetylated Lys3, acetyl presumably on alpha-amine
B2: Compound of SEQ ID NO: 106 (peptide)
peptide: [Dad]CK[Trp(7-Me)]K(Ac)C[Yde][2Nal][αMeL]KN[3Pal][Sar]-NH2
modifications: lactam (positions not given here); disulfide 2-6; not fully specified (residue 3, bridges); printed as Dad(§1)-C(§3)(@2)-K[aAc](@3)-Wim-K[Ac]-C(@2)-Yde-Nal-Mle-K(§1)-N-Pal-Sar-NH2; also: K[aAc]: Cys2 bonded to epsilon-NH2 of acetylated Lys3, acetyl presumably on alpha-amine
B3: Compound of SEQ ID NO: 66 (peptide)
peptide: [Ava]C[εLys](Ac)[Trp(7-Me)]K(Ac)C[Yde][2Nal][Thp]EN[3Pal][Sar]-NH2
modifications: lactam N-10; disulfide 2-6; also: Cys2 carboxyl joined to epsilon-NH2 of Lys3 (isopeptide bond), Lys3 alpha-N acetylated
B4: Compound of SEQ ID NO: 68 (peptide)
peptide: [Dad]C[εLys](Ac)[Trp(7-Me)]LC[Yde][2Nal][αMeL][Lys(Me)]N[3Pal][Sar]-NH2
modifications: lactam (positions not given here); disulfide 2-6; not fully specified (bridges); printed as Dad(§1)-C(§3)(@2)-K[aAc](@3)-Wim-L-C(@2)-Yde-Nal-Mle-Kme(§1)-N-Pal-Sar-NH2; also: Cys2 bonded to ε-NH2 of Lys3 (isopeptide backbone)
B5: Compound of SEQ ID NO: 74 (peptide)
peptide: [Dad][NMeC]K[Trp(7-Me)]K(Ac)C[Yde][2Nal][Thp][Lys(Me)]N[3Pal][Sar]-NH2
modifications: lactam 1-10; disulfide 2-6; not fully specified (residue 3); printed as Dad(§1)-Nmc(§3)(@2)-K[aAc](@3)-Wim-K[Ac]-C(@2)-Yde-Nal-Thp-Kme(§1)-N-Pal-Sar-NH2; also: Nmc2 carbonyl joined by amide bond to epsilon-NH2 of Lys3 (branched isopeptide), Lys3 alpha-NH2 acetylated
B6: Compound of SEQ ID NO: 63 (peptide)
peptide: [Ava]CNT[Trp(7-Me)]QC[Yde][2Nal][αMeL]EN[3Pal][Sar]-NH2
modifications: lactam N-11; disulfide 2-7
SMILES: Cc1cccc2c(C[C@@H]3NC(=O)[C@H]([C@@H](C)O)NC(=O)[C@H](CC(N)=O)NC(=O)[C@@H]4CSSC[C@H](NC(=O)[C@H](CCC(N)=O)NC3=O)C(=O)N[C@@H](Cc3ccc(OCCN(C)C)cc3)C(=O)N[C@@H](Cc3ccc5ccccc5c3)C(=O)N[C@@](C)(CC(C)C)C(=O)N[C@H](C(=O)N[C@@H](CC(N)=O)C(=O)N[C@@H](Cc3cccnc3)C(=O)N(C)CC(N)=O)CCC(=O)NCCCCC(=O)N4)c[nH]c12
B7: Compound of SEQ ID NO: 69 (peptide)
peptide: [Dad][NMeC][εLys](Ac)[Trp(7-Me)]LC[Yde][2Nal][αMeL][Lys(Me)]N[3Pal][Sar]-NH2
modifications: lactam (positions not given here); disulfide 2-6; not fully specified (bridges); printed as Dad(§1)-Nmc(§3)(@2)-K[aAc](@3)-Wim-L-C(@2)-Yde-Nal-Mle-Kme(§1)-N-Pal-Sar-NH2; also: Nmc2 carboxyl joined to epsilon-NH2 of Lys3 (isopeptide bond), Lys3 alpha-N acetylated
B8: Compound of SEQ ID NO: 73 (peptide)
peptide: [Ava]C[εLys](Ac)[Trp(7-Me)]K(Ac)C[Yde][2Nal][αMeL]EN[3Pal][Sar]-NH2
modifications: lactam N-10; disulfide 2-6; also: Cys2 carboxyl joined to epsilon-NH2 of Lys3 (isopeptide bond), Lys3 alpha-N acetylated
B9: Compound of SEQ ID NO: 103 (peptide)
peptide: [Dad]CNT[Trp(7-Me)]K(Ac)C[Yde][2Nal][αMeL]KN[3Pal][Sar]-NH2
modifications: lactam (positions not given here); disulfide 2-7; not fully specified (bridges); printed as Dad(§1)-C(@2)-N-T-Wim-K[Ac]-C(@2)-Yde-Nal-Mle-K(§1)-N-Pal-Sar-NH2
B10: Compound of SEQ ID NO: 64 (peptide)
peptide: [Ava]CNT[Trp(7-Me)]K(Ac)C[Yde][2Nal][Aib]EN[3Pal][Sar]-NH2
modifications: lactam N-11; disulfide 2-7
SMILES: CC(=O)NCCCC[C@@H]1NC(=O)[C@H](Cc2c[nH]c3c(C)cccc23)NC(=O)[C@H]([C@@H](C)O)NC(=O)[C@H](CC(N)=O)NC(=O)[C@@H]2CSSC[C@H](NC1=O)C(=O)N[C@@H](Cc1ccc(OCCN(C)C)cc1)C(=O)N[C@@H](Cc1ccc3ccccc3c1)C(=O)NC(C)(C)C(=O)N[C@H](C(=O)N[C@@H](CC(N)=O)C(=O)N[C@@H](Cc1cccnc1)C(=O)N(C)CC(N)=O)CCC(=O)NCCCCC(=O)N2
B11: Compound of SEQ ID NO: 71 (peptide)
peptide: [Dad]CNT[Trp(7-Me)]QC[Yde][2Nal][Aib]KN[3Pal]K-NH2
modifications: lactam (positions not given here); disulfide 2-7; not fully specified (residue 14, bridges); printed as Dad(§1)-C(@2)-N-T-Wim-Q-C(@2)-Yde-Nal-Aib-K(§1)-N-Pal-K[Sema]-NH2
B12: Compound of SEQ ID NO: 72 (peptide)
peptide: [Ava]C[εLys](Ac)[Trp(7-Me)]K(Ac)C[Yde][2Nal][Aib]EN[3Pal][Sar]-NH2
modifications: lactam N-10; disulfide 2-6; also: Cys2 carboxyl joined to epsilon-NH2 of Lys3 (isopeptide bond), Lys3 alpha-N acetylated
B13: Compound of SEQ ID NO: 62 (peptide)
peptide: [Ava]CNT[Trp(7-Me)]QC[Yde][2Nal][Aib]EN[3Pal][Sar]-NH2
modifications: lactam N-11; disulfide 2-7
SMILES: Cc1cccc2c(C[C@@H]3NC(=O)[C@H]([C@@H](C)O)NC(=O)[C@H](CC(N)=O)NC(=O)[C@@H]4CSSC[C@H](NC(=O)[C@H](CCC(N)=O)NC3=O)C(=O)N[C@@H](Cc3ccc(OCCN(C)C)cc3)C(=O)N[C@@H](Cc3ccc5ccccc5c3)C(=O)NC(C)(C)C(=O)N[C@H](C(=O)N[C@@H](CC(N)=O)C(=O)N[C@@H](Cc3cccnc3)C(=O)N(C)CC(N)=O)CCC(=O)NCCCCC(=O)N4)c[nH]c12
B14: Compound of SEQ ID NO: 67 (peptide)
peptide: [Ava]C[εLys](Ac)[Trp(7-Me)]K(Ac)C[Yde][2Nal][αMeK](Palmitoyl)EN[3Pal][Sar]-NH2
modifications: lactam N-10; disulfide 2-6; also: Cys2 carboxyl joined to epsilon-NH2 of Lys3 (isopeptide bond), Lys3 alpha-N acetylated
B15: Compound of SEQ ID NO: 105 (peptide)
peptide: [Dad]CK[Trp(7-Me)]K(Ac)C[Yde][2Nal][Thp]KN[3Pal][Sar]-NH2
modifications: lactam (positions not given here); disulfide 2-6; not fully specified (residue 3, bridges); printed as Dad(§1)-C(§3)(@2)-K[aAc](@3)-Wim-K[Ac]-C(@2)-Yde-Nal-Thp-K(§1)-N-Pal-Sar-NH2; also: K[aAc]: Cys2 bonded to epsilon-NH2 of acetylated Lys3, acetyl presumably on alpha-amine
B16: Compound of SEQ ID NO: 8 (peptide)
peptide: [Ava]CNTWQC[Yde][2Nal][Aib]ENN-NH2
modifications: lactam (positions not given here); disulfide 2-7; not fully specified (bridges); printed as Apt(§1)-C(@2)-N-T-W-Q-C(@2)-Yde-Nal-Aib-E(§1)-N—N—NH2
B17: Compound of SEQ ID NO: 102 (peptide)
peptide: [Dad]CNT[Trp(7-Me)]K(Ac)C[Yde][2Nal][Thp]KN[3Pal][Sar]-NH2
modifications: lactam (positions not given here); disulfide 2-7; not fully specified (bridges); printed as Dad(§1)-C(@2)-N-T-Wim-K[Ac]-C(@2)-Yde-Nal-Thp-K(§1)-N-Pal-Sar-NH2

Molecular target: T1, IL-23 receptor on the surface of …
Assay: cell-based or functional assay

Binder	pSTAT3 (nM)
XXKXLCXXXXAXX (Dad(§1)-Nmc(§3)(@2)-K[aAc](@3)-Wim-L-C(@2)-Yde-Nal-Mie-Kme(§1)-A-Pal-Sar-NH2) [Compound of SEQ ID NO: 70]	3.94
B1	0.1
B2	0.13
B3	0.15
B4	2.69
B5	0.12
B6	0.2
B7	3.07
B8	0.1
B9	0.11
B10	0.22
B11	2.35
B12	0.12
B13	0.2
B14	22.6
B15	0.1
B16	5.54
B17	0.09
